The results in this text go back to patent US12138308B2, “Polymer composite for helicobacter pylori recognition and composition for photodynamic therapy comprising same” (eNBiaR Inc., priority 2018, dated 2024).

Data set [1] deals with Helicobacter pylori (SS1 strain). Kind of data set: Antibacterial activity in vitro by concentration, CFU assay, laser 10.0 J/cm^2. The format is cell-based. The following applies: for concentration at which colonies hardly appear / did not appear / Helicobacter pylori no longer grows / concentration from which the number of Helicobacter pylori colonies decreases: concentration based on the photosensitizer; for concentration at which colonies hardly appear / did not appear / Helicobacter pylori no longer grows / concentration from which the number of Helicobacter pylori colonies decreases / colony result value compared to the NC group at 50.0 μg/ml: laser 10.0 J/cm^2; for colony result value compared to the NC group at 50.0 μg/ml: 50.0 μg/ml free photosensitizer.

Data set [2] concerns AGS cells. Put plainly: Cellular uptake in AGS cells (pheophorbide a fluorescence intensity). Conditions: 30 minutes at 36° C., equal concentration based on pheophorbide a. The format is cell-based, human. How it is done:
After incubation, it was washed twice with DPBS, treated with trypsin and cells were collected and centrifuged (1500 rpm, 3 minutes) to remove the supernatant.

Data set [3] concerns AGS cells. How it is done:
AGS cells were dispensed into each well by 1 ml at a concentration of 2×10^4 cells/well in a 24-well plate and cultured at 37° C. and 5% CO2 for 24 hours.
After the reaction, the laser was irradiated in the range of 0-4.0 J/cm^2 using a laser of 50 mW intensity, and the MTT assay was performed to calculate the cell viability compared with the control.

Data set [4] has as its system Helicobacter pylori (26695 strain). Put plainly: Inhibition zone analysis of photodynamic antibacterial effect by laser intensity. The following applies: 50.0 μg/ml based on Pheoa. The class given is cell-based.
For data set [5], the system named is Helicobacter pylori SS1 strain. Put plainly: Confocal microscopy: interaction with and inactivation of Helicobacter pylori SS1 strain. The format is cell-based.
From the text: (§1) Then, it was redispersed with D.W and the above process was repeated twice.
as §1

Turning to butyl-poly(3SL-lysine)10-Ce6, in data set [1], the “concentration at which colonies hardly appear / did not appear / Helicobacter pylori no longer grows” value was 1000 ng/mL and the “concentration from which the number of Helicobacter pylori colonies decreases” value is 500 ng/mL.
In the case of “succinylated silicon phthalocyanine [SSiPC, reference compound]”, in data set [1], the “colony result value compared to the NC group at 50.0 μg/ml” value is recorded as “more than half”.
As for butyl-poly(3SL-lysine)10-SSiPC, the “number of Helicobacter pylori colonies at 25.0 μg/ml” value in data set [1] (25.0 μg/ml based on SSiPC, laser 10.0 J/cm^2, decreased from 1×10^5 CFU/ml) is 4×10^3 CFU/ml. In data set [1], the “concentration at which colonies hardly appear / did not appear / Helicobacter pylori no longer grows” value was determined as 50000 ng/mL.
In the case of pheophorbide a [reference compound], the “number of Helicobacter pylori colonies at 50.0 μg/ml” value in data set [1] (50.0 μg/ml based on Pheoa, same amount of laser (10.0 J/cm^2)) is listed as 9×10^2 CFU/ml. Also, the “colony result value compared to the NC group at 50.0 μg/ml” value in data set [1] is listed as “slightly less than half”. Also, the “cellular uptake: pheophorbide a fluorescence intensity compared with the control” value in data set [2] is recorded as 7×10^2. Besides, the “laser irradiation dose from which cytotoxicity appeared” value in data set [3] is recorded as 0.8 J/cm^2.
Take “3′-sialyllactose-chitosan-pheophorbide a [3SL-Chitosan-Pheoa]”: in data set [1], the “concentration at which colonies hardly appear / did not appear / Helicobacter pylori no longer grows” value was 25000 ng/mL and the “concentration from which the number of Helicobacter pylori colonies decreases” value worked out at 10000 ng/mL.
Take butyl-poly(3SL-lysine)10-HPP: the “number of Helicobacter pylori colonies at 10.0 μg/ml” value in data set [1] (10.0 μg/ml based on HPP, laser 10.0 J/cm^2, decreased from 1×10^5 CFU/ml) was 3×10^3 CFU/ml. Moreover, the “concentration at which colonies hardly appear / did not appear / Helicobacter pylori no longer grows” value in data set [1] is ≥ 25000 ng/mL.
In the case of “3′-Sialyllactose-PEG-Pheophorbide a [3SL-PEG-Pheoa]”, the “inhibition zone at laser intensities of 30, 40, and 50 J/cm^2” value in data set [4] (100 mW laser) was “inhibition zone was also identified”. Besides, in data set [4] (100 mW laser, read two days later), the “inhibition zone at 10.0 J/cm^2 laser” value was “inhibition zone in which Helicobacter pylori does not grow was confirmed”. In data set [4] (comparative group, laser not irradiated), the “inhibition zone without laser irradiation” value is listed as “no inhibition zone was found”.
Take “3′-Sialyllactose-Pullulan-Pheophorbide a [Example 3SL-PU-Pheoa]”: the “number of Helicobacter pylori colonies at 20.0 μg/ml” value in data set [1] (20.0 μg/ml based on Pheoa, laser 10.0 J/cm^2, decreased from 1×10^5 CFU/ml) is 5×10^3 CFU/ml. Moreover, the “concentration at which colonies hardly appear / did not appear / Helicobacter pylori no longer grows” value in data set [1] was ≥ 50000 ng/mL.
Regarding chlorin e6 [Ce6, reference compound], the “colony result value compared to the NC group at 50.0 μg/ml” value in data set [1] is reported as “more than half”.
Turning to butyl-poly(6SL-lysine)10-Pheoa, in data set [5] (SS1 strain 1×10^6 CFU/ml, 1 μg/ml based on pheophorbide a, 37° C., 2 hours), the “interaction with Helicobacter pylori (Cy5 fluorescence of pheophorbide a coinciding with SYTO 9)” value is given as “fluorescence of Cy5 (purple) of pheophorbide a of HSP did not appear”. The “inactivation: propidium iodide (Red) fluorescence, cell membrane damage” value in data set [5] (SS1 strain, total 10 J/cm^2, 50 mW, Laser (+) for 3SL-LRHSP, Laser(+) and Laser(−) for the controls) is on record as “propidium iodide (Red) fluorescence was not confirmed”.
For butyl-poly(3SL-lysine)10-PPIX, in data set [1], the “concentration at which colonies hardly appear / did not appear / Helicobacter pylori no longer grows” value is 10000 ng/mL and the “concentration from which the number of Helicobacter pylori colonies decreases” value was 5000 ng/mL.
